Measurements: patent publication US10800813 (Bicycle, dated 2020)
Read-outs that look alike come from different tables or passages of the source. Numbered stars: 1 amine (or outer) side, 2 acyl side, 3 side chain; on linkers, the order of the positions; unused ones are H or OH. Bridge positions count the residues as written; N and C are the ends. Square brackets hold non-standard residues; d marks the D form. Ends that are not written are not given here. NMeW = CN[C@@H](Cc1c[nH]c2ccccc12)C(=O)O; TBMB = c1c(C[*:1])cc(C[*:3])cc1C[*:2]; Agb = N=C(N)NCC[C@H](N)C(=O)O; Agp = N=C(N)NC[C@H](N)C(=O)O; NMeC = CN[C@@H](CS)C(=O)O; NMeS = CN[C@@H](CO)C(=O)O; NMeA = CN[C@@H](C)C(=O)O

B1: Ac-(06-34-18) NMeAla4 (peptide)
peptide: Ac-CSWP[NMeA]RCLHQDLC-NH2
modifications: linker 1-7-13 via TBMB
SMILES: CC(=O)N[C@H]1CSCc2cc3cc(c2)CSC[C@H](NC(=O)[C@H](CCCNC(=N)N)NC(=O)[C@H](C)N(C)C(=O)[C@@H]2CCCN2C(=O)[C@H](Cc2c[nH]c4ccccc24)NC(=O)[C@H](CO)NC1=O)C(=O)N[C@@H](CC(C)C)C(=O)N[C@@H](Cc1c[nH]cn1)C(=O)N[C@@H](CCC(N)=O)C(=O)N[C@@H](CC(=O)O)C(=O)N[C@@H](CC(C)C)C(=O)N[C@H](C(N)=O)CSC3
B2: Ac-(06-34-18) NMeSer1, NMeAla4 (peptide)
peptide: Ac-C[NMeS]WP[NMeA]RCLHQDLC-NH2
modifications: linker 1-7-13 via TBMB
SMILES: CC(=O)N[C@H]1CSCc2cc3cc(c2)CSC[C@H](NC(=O)[C@H](CCCNC(=N)N)NC(=O)[C@H](C)N(C)C(=O)[C@@H]2CCCN2C(=O)[C@H](Cc2c[nH]c4ccccc24)NC(=O)[C@H](CO)N(C)C1=O)C(=O)N[C@@H](CC(C)C)C(=O)N[C@@H](Cc1c[nH]cn1)C(=O)N[C@@H](CCC(N)=O)C(=O)N[C@@H](CC(=O)O)C(=O)N[C@@H](CC(C)C)C(=O)N[C@H](C(N)=O)CSC3
B3: Ac-(06-34-18) Scram 1 (peptide)
peptide: Ac-CPSAWRCLHQDLC-NH2
modifications: linker 1-7-13 via TBMB
SMILES: CC(=O)N[C@H]1CSCc2cc3cc(c2)CSC[C@H](NC(=O)[C@H](CCCNC(=N)N)NC(=O)[C@H](Cc2c[nH]c4ccccc24)NC(=O)[C@H](C)NC(=O)[C@H](CO)NC(=O)[C@@H]2CCCN2C1=O)C(=O)N[C@@H](CC(C)C)C(=O)N[C@@H](Cc1c[nH]cn1)C(=O)N[C@@H](CCC(N)=O)C(=O)N[C@@H](CC(=O)O)C(=O)N[C@@H](CC(C)C)C(=O)N[C@H](C(N)=O)CSC3
B4: Ac-(06-34-18) NMeCys2 (peptide)
peptide: Ac-CSWPAR[NMeC]LHQDLC-NH2
modifications: linker 1-7-13 via TBMB
SMILES: CC(=O)N[C@H]1CSCc2cc3cc(c2)CSC[C@@H](C(=O)N[C@@H](CC(C)C)C(=O)N[C@@H](Cc2c[nH]cn2)C(=O)N[C@@H](CCC(N)=O)C(=O)N[C@@H](CC(=O)O)C(=O)N[C@@H](CC(C)C)C(=O)N[C@H](C(N)=O)CSC3)N(C)C(=O)[C@H](CCCNC(=N)N)NC(=O)[C@H](C)NC(=O)[C@@H]2CCCN2C(=O)[C@H](Cc2c[nH]c3ccccc23)NC(=O)[C@H](CO)NC1=O
B5: Ac-(06-34-18) Scram 4 (peptide)
peptide: Ac-CWARSPCLHQDLC-NH2
modifications: linker 1-7-13 via TBMB
SMILES: CC(=O)N[C@H]1CSCc2cc3cc(c2)CSC[C@H](NC(=O)[C@@H]2CCCN2C(=O)[C@H](CO)NC(=O)[C@H](CCCNC(=N)N)NC(=O)[C@H](C)NC(=O)[C@H](Cc2c[nH]c4ccccc24)NC1=O)C(=O)N[C@@H](CC(C)C)C(=O)N[C@@H](Cc1c[nH]cn1)C(=O)N[C@@H](CCC(N)=O)C(=O)N[C@@H](CC(=O)O)C(=O)N[C@@H](CC(C)C)C(=O)N[C@H](C(N)=O)CSC3
B6: Ac-(06-34-18) Agp5 (peptide)
peptide: Ac-CSWPA[Agp]CLHQDLC-NH2
modifications: linker 1-7-13 via TBMB
SMILES: CC(=O)N[C@H]1CSCc2cc3cc(c2)CSC[C@H](NC(=O)[C@H](CNC(=N)N)NC(=O)[C@H](C)NC(=O)[C@@H]2CCCN2C(=O)[C@H](Cc2c[nH]c4ccccc24)NC(=O)[C@H](CO)NC1=O)C(=O)N[C@@H](CC(C)C)C(=O)N[C@@H](Cc1c[nH]cn1)C(=O)N[C@@H](CCC(N)=O)C(=O)N[C@@H](CC(=O)O)C(=O)N[C@@H](CC(C)C)C(=O)N[C@H](C(N)=O)CSC3
B7: Ac-(06-34-18) Scram 3 (peptide)
peptide: Ac-CAPWSRCLHQDLC-NH2
modifications: linker 1-7-13 via TBMB
SMILES: CC(=O)N[C@H]1CSCc2cc3cc(c2)CSC[C@H](NC(=O)[C@H](CCCNC(=N)N)NC(=O)[C@H](CO)NC(=O)[C@H](Cc2c[nH]c4ccccc24)NC(=O)[C@@H]2CCCN2C(=O)[C@H](C)NC1=O)C(=O)N[C@@H](CC(C)C)C(=O)N[C@@H](Cc1c[nH]cn1)C(=O)N[C@@H](CCC(N)=O)C(=O)N[C@@H](CC(=O)O)C(=O)N[C@@H](CC(C)C)C(=O)N[C@H](C(N)=O)CSC3
B8: Ac-(06-34-18) Scram 2 (peptide)
peptide: Ac-CWASPRCLHQDLC-NH2
modifications: linker 1-7-13 via TBMB
SMILES: CC(=O)N[C@H]1CSCc2cc3cc(c2)CSC[C@H](NC(=O)[C@H](CCCNC(=N)N)NC(=O)[C@@H]2CCCN2C(=O)[C@H](CO)NC(=O)[C@H](C)NC(=O)[C@H](Cc2c[nH]c4ccccc24)NC1=O)C(=O)N[C@@H](CC(C)C)C(=O)N[C@@H](Cc1c[nH]cn1)C(=O)N[C@@H](CCC(N)=O)C(=O)N[C@@H](CC(=O)O)C(=O)N[C@@H](CC(C)C)C(=O)N[C@H](C(N)=O)CSC3
B9: Ac-(06-34-18) NMeSer1 (peptide)
peptide: Ac-C[NMeS]WPARCLHQDLC-NH2
modifications: linker 1-7-13 via TBMB
SMILES: CC(=O)N[C@H]1CSCc2cc3cc(c2)CSC[C@H](NC(=O)[C@H](CCCNC(=N)N)NC(=O)[C@H](C)NC(=O)[C@@H]2CCCN2C(=O)[C@H](Cc2c[nH]c4ccccc24)NC(=O)[C@H](CO)N(C)C1=O)C(=O)N[C@@H](CC(C)C)C(=O)N[C@@H](Cc1c[nH]cn1)C(=O)N[C@@H](CCC(N)=O)C(=O)N[C@@H](CC(=O)O)C(=O)N[C@@H](CC(C)C)C(=O)N[C@H](C(N)=O)CSC3
B10: Ac-(06-34-18) NMeTrp2 (peptide)
peptide: Ac-CS[NMeW]PARCLHQDLC-NH2
modifications: linker 1-7-13 via TBMB
SMILES: CC(=O)N[C@H]1CSCc2cc3cc(c2)CSC[C@H](NC(=O)[C@H](CCCNC(=N)N)NC(=O)[C@H](C)NC(=O)[C@@H]2CCCN2C(=O)[C@H](Cc2c[nH]c4ccccc24)N(C)C(=O)[C@H](CO)NC1=O)C(=O)N[C@@H](CC(C)C)C(=O)N[C@@H](Cc1c[nH]cn1)C(=O)N[C@@H](CCC(N)=O)C(=O)N[C@@H](CC(=O)O)C(=O)N[C@@H](CC(C)C)C(=O)N[C@H](C(N)=O)CSC3
B11: Ac-(06-34-18) A2A3 (peptide)
peptide: Ac-CSAAARCLHQDLC-NH2
modifications: linker 1-7-13 via TBMB
SMILES: CC(=O)N[C@H]1CSCc2cc3cc(c2)CSC[C@H](NC(=O)[C@H](CCCNC(=N)N)NC(=O)[C@H](C)NC(=O)[C@H](C)NC(=O)[C@H](C)NC(=O)[C@H](CO)NC1=O)C(=O)N[C@@H](CC(C)C)C(=O)N[C@@H](Cc1c[nH]cn1)C(=O)N[C@@H](CCC(N)=O)C(=O)N[C@@H](CC(=O)O)C(=O)N[C@@H](CC(C)C)C(=O)N[C@H](C(N)=O)CSC3
B12: Ac-(06-34-18) A2Q3 (peptide)
peptide: Ac-CSAQARCLHQDLC-NH2
modifications: linker 1-7-13 via TBMB
SMILES: CC(=O)N[C@H]1CSCc2cc3cc(c2)CSC[C@H](NC(=O)[C@H](CCCNC(=N)N)NC(=O)[C@H](C)NC(=O)[C@H](CCC(N)=O)NC(=O)[C@H](C)NC(=O)[C@H](CO)NC1=O)C(=O)N[C@@H](CC(C)C)C(=O)N[C@@H](Cc1c[nH]cn1)C(=O)N[C@@H](CCC(N)=O)C(=O)N[C@@H](CC(=O)O)C(=O)N[C@@H](CC(C)C)C(=O)N[C@H](C(N)=O)CSC3
B13: Ac-(06-34-18) Agb5 (peptide)
peptide: Ac-CSWPA[Agb]CLHQDLC-NH2
modifications: linker 1-7-13 via TBMB
SMILES: CC(=O)N[C@H]1CSCc2cc3cc(c2)CSC[C@H](NC(=O)[C@H](CCNC(=N)N)NC(=O)[C@H](C)NC(=O)[C@@H]2CCCN2C(=O)[C@H](Cc2c[nH]c4ccccc24)NC(=O)[C@H](CO)NC1=O)C(=O)N[C@@H](CC(C)C)C(=O)N[C@@H](Cc1c[nH]cn1)C(=O)N[C@@H](CCC(N)=O)C(=O)N[C@@H](CC(=O)O)C(=O)N[C@@H](CC(C)C)C(=O)N[C@H](C(N)=O)CSC3

Columns and labels:
Assay in all cases: enzyme inhibition assay
human plasma Kallikrein [1] = molecular target: T1, human plasma Kallikrein (human, UniProt P03952 20-638, limits assumed)
T1 construct: also called hPK; human PK
T1 sequence (P03952 20-638 limits assumed): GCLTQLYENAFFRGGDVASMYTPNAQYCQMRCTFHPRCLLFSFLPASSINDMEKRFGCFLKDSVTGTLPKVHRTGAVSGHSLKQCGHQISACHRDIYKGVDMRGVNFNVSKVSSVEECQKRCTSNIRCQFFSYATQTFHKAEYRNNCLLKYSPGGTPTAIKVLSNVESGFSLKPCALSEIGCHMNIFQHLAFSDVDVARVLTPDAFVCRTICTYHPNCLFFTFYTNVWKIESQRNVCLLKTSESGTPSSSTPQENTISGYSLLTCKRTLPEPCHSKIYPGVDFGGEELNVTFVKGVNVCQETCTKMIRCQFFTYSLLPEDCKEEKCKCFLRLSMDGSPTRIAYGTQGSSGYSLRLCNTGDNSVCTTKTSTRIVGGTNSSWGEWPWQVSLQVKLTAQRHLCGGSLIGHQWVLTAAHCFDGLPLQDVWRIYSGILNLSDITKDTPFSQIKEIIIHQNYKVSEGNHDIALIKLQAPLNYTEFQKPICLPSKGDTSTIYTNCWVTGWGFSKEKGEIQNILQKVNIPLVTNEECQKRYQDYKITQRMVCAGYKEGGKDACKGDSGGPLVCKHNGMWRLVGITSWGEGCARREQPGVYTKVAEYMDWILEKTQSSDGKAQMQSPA

human plasma Kallikrein [2] = molecular target: T1, human plasma Kallikrein; remark: listed apart in the source
human plasma Kallikrein [3] = molecular target: T1, human plasma Kallikrein; remark: listed apart in the source
Rat plasma Kallikrein = molecular target: T2, Rat plasma Kallikrein (rat, UniProt P14272 391-638, limits assumed)
T2 construct: domain: catalytic domain; also called rPK; rat PK
T2 sequence (P14272 391-638 limits assumed): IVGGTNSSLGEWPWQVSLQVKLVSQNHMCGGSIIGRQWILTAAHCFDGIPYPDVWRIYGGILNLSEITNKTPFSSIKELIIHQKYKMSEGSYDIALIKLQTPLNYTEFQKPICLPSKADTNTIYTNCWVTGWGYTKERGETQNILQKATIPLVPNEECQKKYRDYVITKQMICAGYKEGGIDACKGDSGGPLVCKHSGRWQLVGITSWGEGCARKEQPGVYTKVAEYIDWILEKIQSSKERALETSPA

human plasma Kallikrein [4] = molecular target: T1, human plasma Kallikrein; remark: listed apart in the source
human plasma Kallikrein [5] = molecular target: T1, human plasma Kallikrein; remark: listed apart in the source

| Binder | Ki (human plasma Kallikrein [2]) | IC50 (Rat plasma Kallikrein) | IC50 (human plasma Kallikrein [4]) | also measured |
| --- | --- | --- | --- | --- |
| B1 |  |  |  | Ki (human plasma Kallikrein [1]): 343 nM |
| B2 |  |  |  | Ki (human plasma Kallikrein [1]): 444 nM |
| B3 | 1090 nM |  |  |  |
| B4 |  |  |  | Ki (human plasma Kallikrein [1]): 418 nM |
| B5 | 67500 nM |  |  |  |
| B6 |  |  |  | Ki (human plasma Kallikrein [3]): 1770 nM |
| B7 | 1890 nM |  |  |  |
| ACSWPARCVHQDLCA (linker 2-8-14 via TBMB; not fully specified (N-terminus, C-terminus)) [06-34-01] |  | 6.12 nM | 0.15 nM |  |
| ACSWPARCMHQDLCA (linker 2-8-14 via TBMB; not fully specified (N-terminus, C-terminus)) [06-34-17 (01 + 04)] |  | 0.44 nM | 0.073 nM |  |
| ACRWPARCTHQDLCA (linker 2-8-14 via TBMB; not fully specified (N-terminus, C-terminus)) [06-34-02] |  | 1.09 nM | 0.16 nM |  |
| ACRWPARCLHQDLCA (linker 2-8-14 via TBMB; not fully specified (N-terminus, C-terminus)) [06-34-05] |  | 0.62 nM | 0.076 nM |  |
| ACSWPARCTHQDLCA (linker 2-8-14 via TBMB; not fully specified (N-terminus, C-terminus)) [06-34-03 (01 + 02)] |  | 0.87 nM | 0.082 nM |  |
| ACRWPARCMHQDLCA (linker 2-8-14 via TBMB; not fully specified (N-terminus, C-terminus)) [06-34-04] |  | 0.56 nM | 0.075 nM |  |
| B8 | 11400 nM |  |  |  |
| B9 |  |  |  | Ki (human plasma Kallikrein [1]): 0.5 nM |
| B10 |  |  |  | Ki (human plasma Kallikrein [1]): 228 nM |
| B11 | 18500 nM |  |  | fold reduction of binding against Ac-06-34-18(TMB)-NH2 (human plasma Kallikrein [5]): ~100000 fold |
| B12 | 15800 nM |  |  | fold reduction of binding against Ac-06-34-18(TMB)-NH2 (human plasma Kallikrein [5]): ~100000 fold |
| B13 |  |  |  | Ki (human plasma Kallikrein [3]): 83 nM |
